“Also recorded” adds a separate entry of the source.
Columns and labels:
[1] = test system: ribosomes; test: ribosome-binding assay; design: species or system Saccharomyces cerevisiae; conditions: supernatant/pellet, immunoblot
Protocol: Yeast strains were grown to early log phase on YPD, prior to harvest cycloheximide was added to a final concentration of 100 µg/ml, and subsequently cells were collected via centrifugation at 5000 g. Cell pellets were resuspended in ribosome-binding buffer (20 mM Hepes/KOH pH 7.4, 2 mM Mg(OAc)2, 120 mM KOAc, 100 µg/ml cycloheximide, 2 mM DTT, 1 mM PMSF, protease inhibitor mix) and total cell extracts were prepared by the glass beads method. After a clearing spin at 20.000 g, each 60 µl of the total glass beads extract (A260 between 80 and 100 mAU) was loaded onto a 90 µl sucrose cushion (25% sucrose, 20 mM Hepes/KOH pH 7.4, 120 mM KOAc, 2 mM Mg(OAc)2, 2 mM DTT, 1 mM PMSF, protease inhibitor mix). After centrifugation at 400.000 g at 4 °C for 25 min the cytosolic supernatant was collected and the ribosomal pellet was resuspended in 300 µl ribosome-binding buffer. Aliquots of the total cell extract, cytosolic supernatant, and resuspended ribosomal pellets were precipitated by addition of TCA (trichloroacetic acid) to a final concentration of 5%. TCA pellets were dissolved in SDS-sample buffer and were analyzed on 10% Tris-Tricine gels followed by immunoblotting.

[2] = test system: nascent Pgk1-100; test: crosslinking to ribosome-bound nascent chain; assay type: binding, Saccharomyces cerevisiae; conditions: BS3
Excerpt: (§1) DNA templates for transcription reactions were generated by PCR using pSPUTK-Pgk1[20] as a template. Reverse primers were designed such, that PCR products encoded different length PGK1 sequences, which all lacked a stop codon. The length of the resulting translation products, which remain ribosome-bound, is indicated in Results and Figure Legends. Transcripts were generated using SP6 polymerase (Thermo Fischer Scientific) as previously described. RNCs were generated via translation reactions primed with the stop codon-less transcripts at 20 °C in the presence of [^35S]-methionine (Hartmann-Analytic) for 80 min[20],[54]. Translation reactions were stopped by the addition of 50 µg/ml cycloheximide final concentration and subsequently RNCs were isolated via centrifugation at 400.000 g for 20 min in a TLA-100 or TLA-100.2 rotor (Beckman Coulter)[20].
(§2) Chemical crosslinking of ribosome-bound nascent chains to Ssb, Zuo1, or Ssz1 was analyzed essentially as described. In brief, resuspended RNCs were incubated in the presence of 400 µM BS^3 (bis-(sulfosuccinimidyl)-suberate, spacer length 1.14 nm, Thermo Scientific) for 20 min on ice and crosslinking was then quenched by the addition of TRIS base (tris(hydroxymethyl)aminomethane) to a final concentration of 50 mM. Crosslinked protein samples were precipitated by the addition of TCA (final concentration 5%), pellets were collected by centrifugation and were dissolved in dissociation buffer (200 mM TRIS/HCl pH 7.5, 4% SDS; 10 mM EDTA, 100 µg/ml BSA, protease inhibitor mix, 1 mM PMSF). Totals shown in Figs. 1,3 and Supplementary Fig. 1 before (total) and after BS^3 crosslinking (total + BS^3) represent 5% of the dissolved material employed for immunoprecipitation reactions. The resulting denatured protein samples were used to identify crosslink products between Ssb, Zuo1, or Ssz1 and nascent chains via affinity purification under denaturing conditions. To that end, protein A sepharose beads (GE Healthcare) were pre-coated with antibodies directed against Ssb, Zuo1, or Ssz1 and subsequently the denatured crosslinked material was allowed to bind to the beads resuspended in immunoprecipitation buffer (10 mM TRIS/HCl pH 7.5, 150 mM NaCl, 5 mM EDTA, 1% Triton X-100, protease inhibitor mix, 0.5 mM PMSF)[20]. Crosslink products bound to protein A sepharose beads were released by addition of SDS-sample buffer at 95 °C for 10 min. Samples were analyzed on Tris-Tricine gels[56] followed by autoradiography. Loading was normalized according to the signal of [^35S]-labelled nascent Pgk1 in the total prior to crosslinking. Relative crosslinking efficiencies between nascent Pgk1-100 and Zuo1 or Ssz1, respectively were determined as follows. For each biological replicate, band intensities of non-crosslinked nascent Pgk1-100 and of Pgk1-100 crosslink products (XL-Zuo1 or XL-Ssz1) was determined on a single autoradiograph for wild type RAC and the different mutant variants of RAC. The crosslinking efficiency (XL-Zuo1/Pgk1-100 or XL-Ssz1/Pgk1-100) of each sample was calculated and subsequently the ratio of XL-Zuo1/Pgk1-100 or XL-Ssz1/Pgk1-100 in the presence of wild type RAC was set to 1 in order to normalize the biological replicates (see Fig. 3c,d). The original data are provided as a Source Data file.
For complementation experiments translation reactions were performed in either ∆ssb1∆ssb2 or ∆ssb1∆ssb2∆zuo1∆ssz1 translation extract as indicated. Complementation with purified Ssb1 was performed by adding His6-tagged ScSsb1 at a final concentration of 2 µM to the translation reaction prior to the addition of mRNA. Ribosome-free cytosolic extract of various mutant yeast strains for complementation experiments as indicated in Results and Figure Legends was generated as follows. The A260 of a total cell extract prepared by the glass beads method (see above) was determined, and the total cell extract was subsequently adjusted to a final concentration of 800 mM KOAc. […]

[3] = test system: nascent Pgk1 chains of 50–150 residues; test: crosslinking to ribosome-bound nascent chain; assay type: binding, Saccharomyces cerevisiae; conditions: Δssb1Δssb2 translation extract (Ssb absent); BS3
Excerpt: as §1, §2

[4] = test system: nascent Pgk1-40; test: crosslinking to ribosome-bound nascent chain; assay type: binding, Saccharomyces cerevisiae; conditions: wild type translation extract; BS3
Excerpt: as §1, §2

[5] = test system: nascent Pgk1-45; test: crosslinking to ribosome-bound nascent chain; assay type: binding, Saccharomyces cerevisiae; conditions: wild type translation extract; BS3
Excerpt: as §1, §2

[6] = test system: nascent Pgk1-50; test: crosslinking to ribosome-bound nascent chain; assay type: binding, Saccharomyces cerevisiae; conditions: wild type translation extract; BS3
Excerpt: as §1, §2

Ssb-ΔC23
ribosome association ([1]; Ssb-ΔC23 translation extract): not ribosome-associated but fully recovered in the supernatant fraction | ribosome binding ([1]; total cell extract): fully recovered in the cytosol | crosslink to nascent Pgk1-100 ([2]; Ssb-ΔC23 translation extract): no crosslink between Ssb-ΔC23 and Pgk1-100 was detected

B1: Zuo1: J-domain protein (Hsp40), RAC subunit (protein)
chain: MFSLPTLTSDITVEVNSSATKTPFVRRPVEPVGKFFLQHAQRTLRNHTWSEFERIEAEKNVKTVDESNVDPDELLFDTELADEDLLTHDARDWKTADLYAAMGLSKLRFRATESQIIKAHRKQVVKYHPDKQSAAGGSLDQDGFFKIIQKAFETLTDSNKRAQYDSCDFVADVPPPKKGTDYDFYEAWGPVFEAEARFSKKTPIPSLGNKDSSKKEVEQFYAFWHRFDSWRTFEFLDEDVPDDSSNRDHKRYIERKNKAARDKKKTADNARLVKLVERAVSEDPRIKMFKEEEKKEKERRKWEREAGARAEAEAKAKAEAEAKAKAESEAKANASAKADKKKAKEAAKAAKKKNKRAIRNSAKEADYFGDADKATTIDEQVGLIVDSLNDEELVSTADKIKANAAGAKEVLKESAKTIVDSGKLPSSLLSYFV
crosslink to nascent chains of 50–150 residues [3]: efficient crosslinks | crosslink to nascent Pgk1-40 [4]: most efficiently crosslinked to Pgk1-40 | crosslink to nascent Pgk1-45 [5]: formed crosslinks with these short nascent chains | crosslink to nascent Pgk1-50 [6]: below the detection limit | crosslinking of Zuo1 to nascent Pgk1 when RAC or Ssz1 is absent from ribosomes ([2]; Fig. 1e set-up): strongly enhanced | contact of Zuo1 with nascent Pgk1-100 when Ssz1 was absent or not in a stable complex ([2]; Δzuo1Δssz1Δssb1Δssb2 RNCs complemented with ribosome-free extracts): remained in contact with Zuo1

B2: Ssz1mut: Ssz1 with L439S/K440P/I448F/G495K in the peptide binding groove (protein)
chain: MSSPVIGITFGNTSSSIAYINPKNDVDVIANPDGERAIPSALSYVGEDEYHGGQALQQLIRNPKNTIINFRDFIGLPFDKCDVSKCANGAPAVEVDGKVGFVISRGEGKEEKLTVDEVVSRHLNRLKLAAEDYIGSAVKEAVLTVPTNFSEEQKTALKASAAKIGLQIVQFINEPSAALLAHAEQFPFEKDVNVVVADFGGIRSDAAVIAVRNGIFTILATAHDLSLGGDNLDTELVEYFASEFQKKYQANPRKNARSLAKLKANSSITKKTLSNATSATISIDSLADGFDYHASINRMRYELVANKVFAQFSSFVDSVIAKAELDPLDIDAVLLTGGVSFTPKLTTNLEYTLPESVEILGPQNKNASNNPNELAASGAALQARLISDYDADELAEALQPVIVNTPHLKKPIGLIGAKGEFHPVLLAETSFPVQKKLTSPQAKGDFLFGVYEGDHHIEEKTLEPIPKEENAEEDDESEWSDDEPEVVREKLYTLKTKLMELGIKNANGVEIIFNINKDGALRVTARDLKTGNAVKGEL
contact of nascent Pgk1-100 with Ssz1mut compared to Ssz1 ([2]; RACmut-ΔN8 (Zuo1-ΔN8/Ssz1mut) vs RAC-ΔN8): impaired; also recorded: strongly reduced
